Earlier results in paper PMC3347567.

Molecular target: PEDF-R (Homo sapiens) (UniProt Q96AD5)
Sequence of UniProt Q96AD5 (Q96AD5 whole entry): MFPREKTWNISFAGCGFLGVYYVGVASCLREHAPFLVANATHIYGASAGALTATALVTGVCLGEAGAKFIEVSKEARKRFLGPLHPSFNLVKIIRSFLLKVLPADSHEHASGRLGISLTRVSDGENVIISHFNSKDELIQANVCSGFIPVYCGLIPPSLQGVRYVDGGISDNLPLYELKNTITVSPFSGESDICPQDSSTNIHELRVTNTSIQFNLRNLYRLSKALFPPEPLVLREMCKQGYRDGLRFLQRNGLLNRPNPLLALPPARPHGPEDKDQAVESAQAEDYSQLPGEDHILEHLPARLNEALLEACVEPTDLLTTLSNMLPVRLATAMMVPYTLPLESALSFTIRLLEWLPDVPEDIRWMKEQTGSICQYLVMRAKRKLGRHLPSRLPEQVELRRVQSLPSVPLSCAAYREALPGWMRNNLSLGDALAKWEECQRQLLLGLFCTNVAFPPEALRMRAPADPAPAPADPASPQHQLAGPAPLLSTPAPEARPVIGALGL

Kd: 3.03 nM
Substance: PEDF (from UniProt P36955)
